{
  "source": "patent US20260008815A1",
  "about": "“CYCLIC PEPTIDE OR SALT THEREOF, AND USES THEREOF” (FUJIFILM Corporation, priority 2023, published 2026)",
  "note": "Bridge positions count the residues as written; N and C are the ends. Ends that are not written are not given here. COCH2 = acetyl group that carries the bridge",
  "data": [
    {"target": "T1, Recombinant Human FGFR2 alpha (IIIc) Fc Chimera Protein (Homo sapiens, UniProt P21802)", "T1 construct": "Fc (chimera); purchased R&D systems 712-FR-050", "T1 sequence (P21802 with tags, fused parts or gaps limits assumed)": "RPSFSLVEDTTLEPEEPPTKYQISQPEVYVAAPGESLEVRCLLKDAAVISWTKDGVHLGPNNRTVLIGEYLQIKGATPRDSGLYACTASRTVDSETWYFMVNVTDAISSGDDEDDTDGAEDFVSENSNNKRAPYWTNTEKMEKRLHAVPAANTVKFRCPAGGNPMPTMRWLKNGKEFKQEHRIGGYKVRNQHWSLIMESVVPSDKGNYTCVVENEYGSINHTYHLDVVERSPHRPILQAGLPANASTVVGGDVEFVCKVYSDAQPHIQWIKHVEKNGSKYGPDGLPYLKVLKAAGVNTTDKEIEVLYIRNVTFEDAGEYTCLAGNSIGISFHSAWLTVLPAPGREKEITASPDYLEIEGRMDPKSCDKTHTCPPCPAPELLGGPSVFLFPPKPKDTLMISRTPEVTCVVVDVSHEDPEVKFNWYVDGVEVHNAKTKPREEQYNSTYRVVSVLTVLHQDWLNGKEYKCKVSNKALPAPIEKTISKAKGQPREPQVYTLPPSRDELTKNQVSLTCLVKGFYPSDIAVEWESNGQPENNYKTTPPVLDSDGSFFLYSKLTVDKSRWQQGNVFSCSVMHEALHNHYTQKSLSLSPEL", "assay": "ELISA binding affinity of enzymatically synthesized peptide to FGFR", "conditions": "ELISA luminescence signal at 10 nmol/L peptide, SEQ ID NO: 47 at 10 nmol/L standardized to 1; enzyme synthesis product", "procedure,_shortened": "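FGFR2 alpha (IIIc) Fc chimera (5 ng/well) was immobilized, and Myc-tagged peptide was bound 3 h at room temperature, then detected with anti-Myc antibody (2 h) and chemiluminescent substrate. Signal was corrected against FGFR-free wells. Score A–D was the luminescence at 10 nmol/L peptide, normalized to cyclic peptide SEQ ID NO: 47.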", "values": [
      {"substance": "169 (YCEINYLDPEQYQYFIYFK(COCH2)Y; thioether 2-19 (inferred)) [compound 169]", "Evaluation result of binding affinity to FGFR": "A (0.7 or more)"},
      {"substance": "170 (YCEVNYLDPEQYQYFIYFK(COCH2)Y; thioether 2-19 (inferred)) [compound 170]", "Evaluation result of binding affinity to FGFR": "A (0.7 or more)"},
      {"substance": "171 (YCEFNYLDPEQYQYFIYFK(COCH2)Y; thioether 2-19 (inferred)) [compound 171]", "Evaluation result of binding affinity to FGFR": "B (0.5 or more and less than 0.7)"},
      {"substance": "172 (YCEYNYLDPEQYQYFIYFK(COCH2)Y; thioether 2-19 (inferred)) [compound 172]", "Evaluation result of binding affinity to FGFR": "A (0.7 or more)"},
      {"substance": "173 (YCEWNYLDPEQYQYFIYFK(COCH2)Y; thioether 2-19 (inferred)) [compound 173]", "Evaluation result of binding affinity to FGFR": "A (0.7 or more)"},
      {"substance": "174 (YCENNYLDPEQYQYFIYFK(COCH2)Y; thioether 2-19 (inferred)) [compound 174]", "Evaluation result of binding affinity to FGFR": "A (0.7 or more)"},
      {"substance": "175 (YCEQNYLDPEQYQYFIYFK(COCH2)Y; thioether 2-19 (inferred)) [compound 175]", "Evaluation result of binding affinity to FGFR": "A (0.7 or more)"},
      {"substance": "176 (YCESNYLDPEQYQYFIYFK(COCH2)Y; thioether 2-19 (inferred)) [compound 176]", "Evaluation result of binding affinity to FGFR": "A (0.7 or more)"},
      {"substance": "177 (YCETNYLDPEQYQYFIYFK(COCH2)Y; thioether 2-19 (inferred)) [compound 177]", "Evaluation result of binding affinity to FGFR": "A (0.7 or more)"},
      {"substance": "178 (YCEDNYLDPEQYQYFIYFK(COCH2)Y; thioether 2-19 (inferred)) [compound 178]", "Evaluation result of binding affinity to FGFR": "A (0.7 or more)"},
      {"substance": "179 (YCERNYLDPEQYQYFIYFK(COCH2)Y; thioether 2-19 (inferred)) [compound 179]", "Evaluation result of binding affinity to FGFR": "A (0.7 or more)"},
      {"substance": "180 (YCEHNYLDPEQYQYFIYFK(COCH2)Y; thioether 2-19 (inferred)) [compound 180]", "Evaluation result of binding affinity to FGFR": "A (0.7 or more)"},
      {"substance": "181 (YCEEGYLDPEQYQYFIYFK(COCH2)Y; thioether 2-19 (inferred)) [compound 181]", "Evaluation result of binding affinity to FGFR": "B (0.5 or more and less than 0.7)"},
      {"substance": "182 (YCEEWYLDPEQYQYFIYFK(COCH2)Y; thioether 2-19 (inferred)) [compound 182]", "Evaluation result of binding affinity to FGFR": "C (0.1 or more and less than 0.5)"},
      {"substance": "183 (YCEEQYLDPEQYQYFIYFK(COCH2)Y; thioether 2-19 (inferred)) [compound 183]", "Evaluation result of binding affinity to FGFR": "C (0.1 or more and less than 0.5)"},
      {"substance": "184 (YCEESYLDPEQYQYFIYFK(COCH2)Y; thioether 2-19 (inferred)) [compound 184]", "Evaluation result of binding affinity to FGFR": "C (0.1 or more and less than 0.5)"},
      {"substance": "185 (YCEETYLDPEQYQYFIYFK(COCH2)Y; thioether 2-19 (inferred)) [compound 185]", "Evaluation result of binding affinity to FGFR": "C (0.1 or more and less than 0.5)"},
      {"substance": "186 (YCEENLLDPEQYQYFIYFK(COCH2)Y; thioether 2-19 (inferred)) [compound 186]", "Evaluation result of binding affinity to FGFR": "C (0.1 or more and less than 0.5)"},
      {"substance": "187 (YCEENFLDPEQYQYFIYFK(COCH2)Y; thioether 2-19 (inferred)) [compound 187]", "Evaluation result of binding affinity to FGFR": "A (0.7 or more)"},
      {"substance": "188 (YCEENWLDPEQYQYFIYFK(COCH2)Y; thioether 2-19 (inferred)) [compound 188]", "Evaluation result of binding affinity to FGFR": "A (0.7 or more)"},
      {"substance": "189 (YCEENNLDPEQYQYFIYFK(COCH2)Y; thioether 2-19 (inferred)) [compound 189]", "Evaluation result of binding affinity to FGFR": "B (0.5 or more and less than 0.7)"},
      {"substance": "190 (YCEENQLDPEQYQYFIYFK(COCH2)Y; thioether 2-19 (inferred)) [compound 190]", "Evaluation result of binding affinity to FGFR": "C (0.1 or more and less than 0.5)"},
      {"substance": "191 (YCEENSLDPEQYQYFIYFK(COCH2)Y; thioether 2-19 (inferred)) [compound 191]", "Evaluation result of binding affinity to FGFR": "C (0.1 or more and less than 0.5)"},
      {"substance": "192 (YCEENDLDPEQYQYFIYFK(COCH2)Y; thioether 2-19 (inferred)) [compound 192]", "Evaluation result of binding affinity to FGFR": "C (0.1 or more and less than 0.5)"},
      {"substance": "193 (YCEENRLDPEQYQYFIYFK(COCH2)Y; thioether 2-19 (inferred)) [compound 193]", "Evaluation result of binding affinity to FGFR": "C (0.1 or more and less than 0.5)"},
      {"substance": "194 (YCEENHLDPEQYQYFIYFK(COCH2)Y; thioether 2-19 (inferred)) [compound 194]", "Evaluation result of binding affinity to FGFR": "A (0.7 or more)"},
      {"substance": "195 (YCEENYIDPEQYQYFIYFK(COCH2)Y; thioether 2-19 (inferred)) [compound 195]", "Evaluation result of binding affinity to FGFR": "A (0.7 or more)"},
      {"substance": "196 (YCEENYVDPEQYQYFIYFK(COCH2)Y; thioether 2-19 (inferred)) [compound 196]", "Evaluation result of binding affinity to FGFR": "A (0.7 or more)"},
      {"substance": "197 (YCEENYFDPEQYQYFIYFK(COCH2)Y; thioether 2-19 (inferred)) [compound 197]", "Evaluation result of binding affinity to FGFR": "A (0.7 or more)"},
      {"substance": "198 (YCEENYYDPEQYQYFIYFK(COCH2)Y; thioether 2-19 (inferred)) [compound 198]", "Evaluation result of binding affinity to FGFR": "A (0.7 or more)"},
      {"substance": "199 (YCEENYWDPEQYQYFIYFK(COCH2)Y; thioether 2-19 (inferred)) [compound 199]", "Evaluation result of binding affinity to FGFR": "A (0.7 or more)"},
      {"substance": "200 (YCEENYNDPEQYQYFIYFK(COCH2)Y; thioether 2-19 (inferred)) [compound 200]", "Evaluation result of binding affinity to FGFR": "C (0.1 or more and less than 0.5)"},
      {"substance": "201 (YCEENYQDPEQYQYFIYFK(COCH2)Y; thioether 2-19 (inferred)) [compound 201]", "Evaluation result of binding affinity to FGFR": "A (0.7 or more)"},
      {"substance": "202 (YCEENYSDPEQYQYFIYFK(COCH2)Y; thioether 2-19 (inferred)) [compound 202]", "Evaluation result of binding affinity to FGFR": "B (0.5 or more and less than 0.7)"},
      {"substance": "203 (YCEENYTDPEQYQYFIYFK(COCH2)Y; thioether 2-19 (inferred)) [compound 203]", "Evaluation result of binding affinity to FGFR": "A (0.7 or more)"},
      {"substance": "204 (YCEENYEDPEQYQYFIYFK(COCH2)Y; thioether 2-19 (inferred)) [compound 204]", "Evaluation result of binding affinity to FGFR": "C (0.1 or more and less than 0.5)"},
      {"substance": "205 (YCEENYRDPEQYQYFIYFK(COCH2)Y; thioether 2-19 (inferred)) [compound 205]", "Evaluation result of binding affinity to FGFR": "A (0.7 or more)"},
      {"substance": "206 (YCEENYHDPEQYQYFIYFK(COCH2)Y; thioether 2-19 (inferred)) [compound 206]", "Evaluation result of binding affinity to FGFR": "A (0.7 or more)"},
      {"substance": "207 (YCEENYLGPEQYQYFIYFK(COCH2)Y; thioether 2-19 (inferred)) [compound 207]", "Evaluation result of binding affinity to FGFR": "A (0.7 or more)"},
      {"substance": "208 (YCEENYLLPEQYQYFIYFK(COCH2)Y; thioether 2-19 (inferred)) [compound 208]", "Evaluation result of binding affinity to FGFR": "C (0.1 or more and less than 0.5)"},
      {"substance": "209 (YCEENYLIPEQYQYFIYFK(COCH2)Y; thioether 2-19 (inferred)) [compound 209]", "Evaluation result of binding affinity to FGFR": "C (0.1 or more and less than 0.5)"},
      {"substance": "210 (YCEENYLVPEQYQYFIYFK(COCH2)Y; thioether 2-19 (inferred)) [compound 210]", "Evaluation result of binding affinity to FGFR": "C (0.1 or more and less than 0.5)"},
      {"substance": "211 (YCEENYLFPEQYQYFIYFK(COCH2)Y; thioether 2-19 (inferred)) [compound 211]", "Evaluation result of binding affinity to FGFR": "A (0.7 or more)"},
      {"substance": "212 (YCEENYLYPEQYQYFIYFK(COCH2)Y; thioether 2-19 (inferred)) [compound 212]", "Evaluation result of binding affinity to FGFR": "A (0.7 or more)"},
      {"substance": "213 (YCEENYLWPEQYQYFIYFK(COCH2)Y; thioether 2-19 (inferred)) [compound 213]", "Evaluation result of binding affinity to FGFR": "B (0.5 or more and less than 0.7)"},
      {"substance": "214 (YCEENYLNPEQYQYFIYFK(COCH2)Y; thioether 2-19 (inferred)) [compound 214]", "Evaluation result of binding affinity to FGFR": "A (0.7 or more)"},
      {"substance": "215 (YCEENYLQPEQYQYFIYFK(COCH2)Y; thioether 2-19 (inferred)) [compound 215]", "Evaluation result of binding affinity to FGFR": "A (0.7 or more)"},
      {"substance": "216 (YCEENYLSPEQYQYFIYFK(COCH2)Y; thioether 2-19 (inferred)) [compound 216]", "Evaluation result of binding affinity to FGFR": "A (0.7 or more)"},
      {"substance": "217 (YCEENYLTPEQYQYFIYFK(COCH2)Y; thioether 2-19 (inferred)) [compound 217]", "Evaluation result of binding affinity to FGFR": "A (0.7 or more)"},
      {"substance": "218 (YCEENYLEPEQYQYFIYFK(COCH2)Y; thioether 2-19 (inferred)) [compound 218]", "Evaluation result of binding affinity to FGFR": "A (0.7 or more)"},
      {"substance": "219 (YCEENYLRPEQYQYFIYFK(COCH2)Y; thioether 2-19 (inferred)) [compound 219]", "Evaluation result of binding affinity to FGFR": "C (0.1 or more and less than 0.5)"},
      {"substance": "220 (YCEENYLHPEQYQYFIYFK(COCH2)Y; thioether 2-19 (inferred)) [compound 220]", "Evaluation result of binding affinity to FGFR": "A (0.7 or more)"},
      {"substance": "221 (YCEENYLDGEQYQYFIYFK(COCH2)Y; thioether 2-19 (inferred)) [compound 221]", "Evaluation result of binding affinity to FGFR": "A (0.7 or more)"},
      {"substance": "222 (YCEENYLDLEQYQYFIYFK(COCH2)Y; thioether 2-19 (inferred)) [compound 222]", "Evaluation result of binding affinity to FGFR": "A (0.7 or more)"},
      {"substance": "223 (YCEENYLDIEQYQYFIYFK(COCH2)Y; thioether 2-19 (inferred)) [compound 223]", "Evaluation result of binding affinity to FGFR": "A (0.7 or more)"},
      {"substance": "224 (YCEENYLDVEQYQYFIYFK(COCH2)Y; thioether 2-19 (inferred)) [compound 224]", "Evaluation result of binding affinity to FGFR": "A (0.7 or more)"},
      {"substance": "225 (YCEENYLDFEQYQYFIYFK(COCH2)Y; thioether 2-19 (inferred)) [compound 225]", "Evaluation result of binding affinity to FGFR": "A (0.7 or more)"}
    ]}
  ]
}
